Bridges are numbered along the chain shown (N, C = ends). Where no end group is shown, it is not given here. [ ]: non-standard residue; d: D form. Aib = CC(C)(N)C(=O)O
T1: human GIP receptor (Homo sapiens, UniProt P48546)
T1 construct: expressed in transfected cells; host or cells: Chinese hamster ovary (CHO)
T1 sequence (P48546 22-466): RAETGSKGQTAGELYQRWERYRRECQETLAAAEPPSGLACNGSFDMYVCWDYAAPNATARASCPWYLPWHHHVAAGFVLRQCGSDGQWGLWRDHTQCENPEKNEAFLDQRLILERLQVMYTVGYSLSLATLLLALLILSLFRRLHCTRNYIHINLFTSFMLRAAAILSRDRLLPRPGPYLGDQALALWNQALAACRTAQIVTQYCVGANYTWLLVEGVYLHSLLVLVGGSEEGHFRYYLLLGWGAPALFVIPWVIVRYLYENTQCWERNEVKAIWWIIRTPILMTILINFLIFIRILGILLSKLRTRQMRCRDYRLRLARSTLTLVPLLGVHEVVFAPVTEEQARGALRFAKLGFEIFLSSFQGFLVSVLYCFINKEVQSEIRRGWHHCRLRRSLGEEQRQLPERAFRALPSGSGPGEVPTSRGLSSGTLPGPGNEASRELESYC

B1: evolocumab (antibody, chains of the INN, looked up, V domains shown)
VH: EVQLVQSGAEVKKPGASVKVSCKASGYTLTSYGISWVRQAPGQGLEWMGWVSFYNGNTNYAQKLQGRGTMTTDPSTSTAYMELRSLRSDDTAVYYCARGYGMDVWGQGTTVTVSS
VL: ESALTQPASVSGSPGQSITISCTGTSSDVGGYNSVSWYQQHPGKAPKLMIYEVSNRPSGVSNRFSGSKSGNTASLTISGLQAEDEADYYCNSYTSTSMVFGGGTKLTVL
notes: conventional therapeutic agent for hyperlipidemia

What was measured:
human GLP-1 receptor = human GLP-1 receptor (Homo sapiens, UniProt P43220); experiment: In vitro activity (cAMP accumulation, LANCE cAMP kit) in CHO cells expressing human GLP-1 receptor; format: cell-based; parameters: expressed in transfected cells; host or cells: Chinese hamster ovary (CHO); details: long-acting conjugate, relative potency from cAMP EC50 compared to human GLP-1
Chain of human GLP-1 receptor (P43220 24-463): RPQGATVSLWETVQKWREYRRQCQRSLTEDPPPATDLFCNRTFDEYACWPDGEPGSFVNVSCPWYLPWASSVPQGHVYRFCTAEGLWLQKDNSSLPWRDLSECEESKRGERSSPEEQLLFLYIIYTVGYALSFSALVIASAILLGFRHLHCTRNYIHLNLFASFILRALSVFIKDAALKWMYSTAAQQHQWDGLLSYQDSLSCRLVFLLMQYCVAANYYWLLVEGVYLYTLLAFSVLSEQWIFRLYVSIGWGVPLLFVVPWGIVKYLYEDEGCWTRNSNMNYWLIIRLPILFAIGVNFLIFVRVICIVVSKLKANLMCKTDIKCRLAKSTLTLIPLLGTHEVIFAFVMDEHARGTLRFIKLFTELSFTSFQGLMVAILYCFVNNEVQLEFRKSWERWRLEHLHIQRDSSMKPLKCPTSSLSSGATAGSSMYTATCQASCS
Method: (§1) Activities of the triple agonists and the long-acting conjugates thereof respectively prepared in Examples 1 and 2 were measured using transformed cell lines in which a GLP-1 receptor, a glucagon (GCG) receptor, and a GIP receptor were transformed by way of a method of measuring in vitro cellular activities.
(§2) The cell lines were transformed such that genes for the human GLP-1 receptor, the human GCG receptor, and the human GIP receptor were each expressed in Chinese hamster ovary (CHO), and were suitable for measuring activities of GLP-1, GCG, and GIP, respectively. Therefore, the activity for each part was measured using each of the transformed cell lines.
(§3) For measurement of the activity of each of the triple agonists and the long-acting conjugates thereof respectively prepared in Examples 1 and 2 to GLP-1, human GLP-1 was subjected to a 4-fold serial dilution from 50 nM to 0.000048 nM, and the triple agonists and the long-acting conjugates thereof respectively prepared in Examples 1 and 2 were subjected to a 4-fold serial dilution from 400 nM to 0.00038 nM. A cultured solution was removed from the cultured CHO cells in which the human GLP-1 receptor was expressed, and each of the serially diluted substances was added to the CHO cells in an amount of 5 μL. Then, a buffer solution including cAMP antibody was added thereto in an amount of 5 μL and cultured at room temperature for 15 minutes. Thereafter, a detection mix including a cell lysis buffer was added thereto in an amount of 10 μL for lysis of the cells, followed by reaction at room temperature for 90 minutes. Upon completion of the reaction, the cell lysates were applied to a LANCE cAMP kit (PerkinElmer, USA) to calculate EC50 values via accumulated cAMP, and the values were compared with each other.

human GCG receptor = molecular target: T2, human GCG receptor (Homo sapiens, UniProt P47871); experiment: In vitro activity (cAMP accumulation, LANCE cAMP kit) in CHO cells expressing human GCG receptor; format: cell-based; details: long-acting conjugate, relative potency from cAMP EC50 compared to human GCG
T2 construct: expressed in transfected cells; host or cells: Chinese hamster ovary (CHO)
Method: as §1, §2
as §3, with “activity” for “activity of each”, “GCG,” for “GLP-1,”, “GCG” for “GLP-1”

human GIP receptor = molecular target: T1, human GIP receptor; experiment: In vitro activity (cAMP accumulation, LANCE cAMP kit) in CHO cells expressing human GIP receptor; format: cell-based; details: long-acting conjugate, relative potency from cAMP EC50 compared to human GIP
Method: as §1, §2
as §3, with “activity” for “activity of each”, “GIP,” for “GLP-1,”, “GIP” for “GLP-1”

hyperlipidemia hamsters = experiment: Therapeutic effect on hyperlipidemia in fructose-fed hyperlipidemia hamsters; format: in vivo, Golden Syrian hamsters; details: 219.2 nmol/kg, QW; comparative example; FIG. 1
Source text: Golden Syrian hamsters (hereinafter referred to as hyperlipidemia hamsters) were fed with fructose for 2 weeks to induce a hyperlipidemia model. Among the triple agonists prepared in Example 1, SEQ ID NO: 42 (1.6 nmol/kg, 3.1 nmol/kg, Q2D) was selected, and the long-acting conjugate of the triple agonist having SEQ ID NO: 42 was repeatedly administered to the hamsters induced with hyperlipidemia for 3 weeks by subcutaneous administration. As a comparative example, therapeutic effects of evolocumab (219.2 nmol/kg, QW), as a conventional therapeutic agent, on hyperlipidemia were measured.

| Molecule | In vitro activity relative to native peptide (%) vs. GLP-1 (human GLP-1 receptor) [%] | In vitro activity relative to native peptide (%) vs. Glucagon (human GCG receptor) [%] | In vitro activity relative to native peptide (%) vs. GIP (human GIP receptor) [%] | effects on total blood cholesterol level and blood LDL level (hyperlipidemia hamsters) |
| --- | --- | --- | --- | --- |
| 22 (Y[Aib]QGTFTSDYSKCLDEKRAKEFVQWLLDHHPSSGQPPPS; bridge 16-20) [compound 22] | 0.1 | 0.9 | 0.5 | – |
| 50 (H[Aib]QGTFTSDYSKYLDEKRAKEFVQWLLDHHPSSGQPPPSC; bridge 16-20) [compound 50] | 15.4 | 6.9 | 0.7 | – |
| 77 (Y[Aib]QGTFTSDYSKYLDEKAAKDFVQWLLDHHPSSGQPPPSC; bridge 16-20) [compound 77] | 6.7 | 1.7 | 6.6 | – |
| 21 (Y[Aib]QGTFTSDYSKYLDECRAKEFVQWLLDHHPSSGQPPPS; bridge 16-20) [compound 21] | 0.1 | 1.6 | 0.2 | – |
| 96 (Y[Aib]QGTFTSDYSKYLDEKRAKEFVQWLLDHCPSSGQPPPS; bridge 16-20) [compound 96] | 0.3 | 4.0 | 0.3 | – |
| 42 (Y[Aib]QGTFTSDYSKYLDEKRAKEFVQWLLDHHPSSGQPPPSC; bridge 16-20) [compound 42] | 3.1 | 23.1 | 1.2 | – |
| 43 (Y[Aib]QGTFTSDYSKYLDEKRAKEFVQWLLDHHCSSGQPPPS; bridge 16-20) [compound 43] | 2.1 | 13.5 | 0.6 | – |
| B1 | – | – | – | negligible effects |

From patent publication US20230158117A1, “COMPOSITION FOR PREVENTION OR TREATMENT OF […] COMPRISING TRIGONAL GLUCAGON/GLP-1/GIP RECEPTOR AGONIST OR CONJUGATE THEREOF AND METHOD USING THE SAME” (HANMI PHARM. CO., LTD., priority 2020, published 2023)
